In PMC6511850 (Nucleic Acids Research, 2019):

Target: the molecule itself
Experiment: SEC

B1: Bacillus subtilis m1A22 tRNA methyltransferase TrmK (wild type) (enzyme, UniProt P54471 1-238, looked up)
chain: MNELKLSKRLQTVAEYIPNGAVMADIGSDHAYLPCYAVLNHKASGAIAGEITDGPFLSAKRQVEKSGLNSHISVRQGDGLEVIKKGEADAITIAGMGGALIAHILEAGKDKLTGKERLILQPNIHAVHIREWLYKERYALIDEVILEEDGKCYEVLVAEAGDRDAAYDGISLSAGMLVGPFLAKEKNAVFLKKWTQELQHTQSIYEQISQAADTEQNKQKLKELADRMELLKEVIDHG
- binding result: binds
